We go through 37 substances from US11332512B2, “Peptides and combination of peptides for use in immunotherapy against various tumors” (Immatics Biotechnologies GmbH, priority 2015, dated 2022).

Assay [1] deals with CD8+ T cells. Kind of assay: In vitro immunogenicity: T-cell priming with aAPCs loaded with peptide/MHC and anti-CD28, pMHC multimer readout. The class given is cell-based, human. The note with it: for Wells positive [%]: percentage of positive wells among evaluable, HLA-A*02 restricted peptides. The text has this: In order to obtain information regarding the immunogenicity of the TUMAPs of the present invention, the inventors performed investigations using an in vitro T-cell priming assay based on repeated stimulations of CD8+ T cells with artificial antigen presenting cells (aAPCs) loaded with peptide/MHC complexes and anti-CD28 antibody.
In order to perform in vitro stimulations by artificial antigen presenting cells loaded with peptide-MHC complex (pMHC) and anti-CD28 antibody, the inventors first isolated CD8+ T cells from fresh HLA-A*02 leukapheresis products via positive selection using CD8 microbeads (Miltenyi Biotec, Bergisch-Gladbach, Germany) of healthy donors obtained from the University clinics Mannheim, Germany, after informed consent. PBMCs and isolated CD8+ lymphocytes were incubated in T-cell medium (TCM) until use consisting of RPMI-Glutamax (Invitrogen, Karlsruhe, Germany) supplemented with 10% heat inactivated human AB serum (PAN-Biotech, Aidenbach, Germany), 100 U/ml Penicillin/100 μg/ml Streptomycin (Cambrex, Cologne, Germany), 1 mM sodium pyruvate (CC Pro, Oberdorla, Germany), 20 μg/ml Gentamycin (Cambrex). 2.5 ng/ml IL-7 (PromoCell, Heidelberg, Germany) and 10 U/ml IL-2 (Novartis Pharma, Nürnberg, Germany) were also added to the TCM at this step. Generation of pMHC/anti-CD28 coated beads, T-cell stimulations and readout was performed in a highly defined in vitro system using four different pMHC molecules per stimulation condition and 8 different pMHC molecules per readout condition.
The purified co-stimulatory mouse IgG2a anti human CD28 Ab 9.3 (Jung et al., 1987) was chemically biotinylated using Sulfo-N-hydroxysuccinimidobiotin as recommended by the manufacturer (Perbio, Bonn, Germany). Beads used were 5.6 μm diameter streptavidin coated polystyrene particles (Bangs Laboratories, Illinois, USA).
pMHC used for positive and negative control stimulations were A*0201/MLA-001 (peptide […] (SEQ ID NO. 289) from modified Melan-A/MART-1) and A*0201/DDX5-001 ([…] from DDX5, SEQ ID NO. 290), respectively.
800.000 beads/200 μl were coated in 96-well plates in the presence of 4×12.5 ng different biotin-pMHC, washed and 600 ng biotin anti-CD28 were added subsequently in a volume of 200 μl. Stimulations were initiated in 96-well plates by co-incubating 1×10^6 CD8+ T cells with 2×10^5 washed coated beads in 200 μl TCM supplemented with 5 ng/ml IL-12 (PromoCell) for 3 days at 37° C. Half of the medium was then exchanged by fresh TCM supplemented with 80 U/ml IL-2 and incubating was continued for 4 days at 37° C. This stimulation cycle was performed for a total of three times. For the pMHC multimer readout using 8 different pMHC molecules per condition, a two-dimensional combinatorial coding approach was used as previously described (Andersen et al., 2012) with minor modifications encompassing coupling to 5 different fluorochromes. Finally, multimeric analyses were performed by staining the cells with Live/dead near IR dye (Invitrogen, Karlsruhe, Germany), CD8-FITC antibody clone SK1 (BD, Heidelberg, Germany) and fluorescent pMHC multimers. For analysis, a BD LSRII SORP cytometer equipped with appropriate lasers and filters was used. Peptide specific cells were calculated as percentage of total CD8+ cells. Evaluation of multimeric analysis was done using the FlowJo software (Tree Star, Oregon, USA). In vitro priming of specific multimer+CD8+ lymphocytes was detected by comparing to negative control stimulations.

Assay [2] concerns the target HLA-A*02:01 (Homo sapiens, UniProt P04439, D140Y/D185E/D98H/E176V/E277Q/G131W/G231S/I119V/I121R/I166T/I218V/L300P/L318F/N151K/N90K/P208A/P217A/Q86G/Q94H/R138H/R169H/T345S). Kind of assay: MHC binding assay: UV-ligand exchange with beta2m ELISA (peptide exchange yield). As to conditions: binding to HLA-A*02:01, β2m ELISA. The text has this:
Candidate peptides for T cell based therapies according to the present invention were further tested for their MHC binding capacity (affinity). The individual peptide-MHC complexes were produced by UV-ligand exchange, where a UV-sensitive peptide is cleaved upon UV-irradiation, and exchanged with the peptide of interest as analyzed. Only peptide candidates that can effectively bind and stabilize the peptide-receptive MHC molecules prevent dissociation of the MHC complexes. To determine the yield of the exchange reaction, an ELISA was performed based on the detection of the light chain (β2m) of stabilized MHC complexes. The assay was performed as generally described in Rodenko et al. (Rodenko et al., 2006).
96 well MAXISorp plates (NUNC) were coated over night with 2 ug/ml streptavidin in PBS at room temperature, washed 4× and blocked for 1 h at 37° C. in 2% BSA containing blocking buffer. Refolded HLA-A*02:01/MLA-001 monomers served as standards, covering the range of 15-500 ng/ml. Peptide-MHC monomers of the UV-exchange reaction were diluted 100 fold in blocking buffer. Samples were incubated for 1 h at 37° C., washed four times, incubated with 2 ug/ml HRP conjugated anti-β2m for 1 h at 37° C., washed again and detected with TMB solution that is stopped with […]. Absorption was measured at 450 nm. Candidate peptides that show a high exchange yield (preferably higher than 50%, most preferred higher than 75%) are generally preferred for a generation and production of antibodies or fragments thereof, and/or T cell receptors or fragments thereof, as they show sufficient avidity to the MHC molecules and prevent dissociation of the MHC complexes.
A general note: ELISA stands for enzyme-linked immunosorbent assay.

For the substance “4 (VLFGELPAL; listed as Homo sapiens) [compound 4]”, the “Wells positive [%]” value in assay [1] is on record as “+ (<20% = +)”. In addition, in assay [2], the “Peptide exchange (MHC class I binding score, peptide exchange yield)” value (shortened to “Peptide exchange”) is recorded as “+++ (= ≥50% = +++)”.

For the substance “9 (SLITGQDLLSV; listed as Homo sapiens) [compound 9]”, the “Wells positive [%]” value in assay [1] is on record as “+ (<20% = +)”. For the same substance, the “Peptide exchange” value in assay [2] was “+++ (= ≥50% = +++)”.

Turning to “14 (YTFSGDVQL; listed as Homo sapiens) [compound 14]”, the “Wells positive [%]” value in assay [1] is on record as “+ (<20% = +)”. In addition, the “Peptide exchange” value in assay [2] is on record as “+++ (= ≥50% = +++)”.

Consider “17 (GLLPSAESIKL; listed as Homo sapiens) [compound 17]”, for which the “Wells positive [%]” value in assay [1] was “+ (<20% = +)”.

As to “27 (GLLGKVTSV; listed as Homo sapiens) [compound 27]”, the “Wells positive [%]” value in assay [1] is recorded as “+ (<20% = +)”. Also, the “Peptide exchange” value in assay [2] is reported as “+++ (= ≥50% = +++)”.

Consider “29 (KMISAIPTL; listed as Homo sapiens) [compound 29]”, for which the “Wells positive [%]” value in assay [1] is “+ (<20% = +)”.

Consider “34 (TLNTLDINL; listed as Homo sapiens) [compound 34]”, for which, in assay [1], the “Wells positive [%]” value was “++++ (> = 70% = ++++)”. The “Peptide exchange” value in assay [2] is on record as “+++ (= ≥50% = +++)”.

Regarding “35 (VIIKGLEEI; listed as Homo sapiens) [compound 35]”, the “Wells positive [%]” value in assay [1] is “+ (<20% = +)”.

As to “39 (YLEDGFAYV; listed as Homo sapiens) [compound 39]”, in assay [1], the “Wells positive [%]” value is reported as “++++ (> = 70% = ++++)”. For the same substance, the “Peptide exchange” value in assay [2] was “+++ (= ≥50% = +++)”.

As for “50 (ILLSVLHQL; listed as Homo sapiens) [compound 50]”, in assay [1], the “Wells positive [%]” value is “+ (<20% = +)”. The “Peptide exchange” value in assay [2] is “+++ (= ≥50% = +++)”.

In the case of “66 (AMFPDTIPRV; listed as Homo sapiens) [compound 66]”, the “Wells positive [%]” value in assay [1] is “+ (<20% = +)”.

As to “77 (ALYGNVQQV; listed as Homo sapiens) [compound 77]”, in assay [1], the “Wells positive [%]” value is on record as “+ (<20% = +)”. For the same substance, the “Peptide exchange” value in assay [2] is “+++ (= ≥50% = +++)”.

In the case of “89 (SLAETIFIV; listed as Homo sapiens) [compound 89]”, in assay [1], the “Wells positive [%]” value is reported as “+ (<20% = +)”. In assay [2], the “Peptide exchange” value was “+++ (= ≥50% = +++)”.

On to “97 (KLFEKSTGL; listed as Homo sapiens) [compound 97]”, for which, in assay [1], the “Wells positive [%]” value is on record as “+ (<20% = +)”. Besides, the “Peptide exchange” value in assay [2] is “+++ (= ≥50% = +++)”.

Take “101 (SLLEVNEASSV; listed as Homo sapiens) [compound 101]”: the “Wells positive [%]” value in assay [1] is “+ (<20% = +)”. Besides, in assay [2], the “Peptide exchange” value is listed as “+++ (= ≥50% = +++)”.

As to “102 (GLYPVTLVGV; listed as Homo sapiens) [compound 102]”, the “Wells positive [%]” value in assay [1] is on record as “+ (<20% = +)”. For the same substance, the “Peptide exchange” value in assay [2] is recorded as “+++ (= ≥50% = +++)”.

Turning to “121 (ALYVQAPTV; listed as Homo sapiens) [compound 121]”, the “Wells positive [%]” value in assay [1] is recorded as “+ (<20% = +)”.

As for “157 (ILQDGQFLV; listed as Homo sapiens) [compound 157]”, the “Wells positive [%]” value in assay [1] is given as “+ (<20% = +)”.

Consider “253 (KLLAVIHEL; listed as Homo sapiens) [compound 253]”, for which the “Peptide exchange” value in assay [2] is “+++ (= ≥50% = +++)”.

In the case of “254 (ALGDKFLLRV; listed as Homo sapiens) [compound 254]”, in assay [1], the “Wells positive [%]” value is on record as “+ (<20% = +)”.

Turning to “256 (FLNDIFERI; listed as Homo sapiens) [compound 256]”, the “Peptide exchange” value in assay [2] was “+++ (= ≥50% = +++)”.

On to “261 (GLAALAVHL; listed as Homo sapiens) [compound 261]”, for which the “Peptide exchange” value in assay [2] is on record as “+++ (= ≥50% = +++)”.

With “262 (LLLEAVWHL; listed as Homo sapiens) [compound 262]”, in assay [2], the “Peptide exchange” value was “+++ (= ≥50% = +++)”.

For “264 (TLHDQVHLL; listed as Homo sapiens) [compound 264]”, the “Wells positive [%]” value in assay [1] is recorded as “+ (<20% = +)”.

Take “265 (FLLDKPQDLSI; listed as Homo sapiens) [compound 265]”: the “Peptide exchange” value in assay [2] is “+++ (= ≥50% = +++)”.

On to “270 (TLLTFFHEL; listed as Homo sapiens) [compound 270]”, for which the “Peptide exchange” value in assay [2] was “+++ (= ≥50% = +++)”.

With “271 (VLIEYNFSI; listed as Homo sapiens) [compound 271]”, the “Peptide exchange” value in assay [2] is on record as “+++ (= ≥50% = +++)”.

Take “274 (TLYNPERTITV; listed as Homo sapiens) [compound 274]”: the “Peptide exchange” value in assay [2] was “+++ (= ≥50% = +++)”.

Take “276 (RMPTVLQCV; listed as Homo sapiens) [compound 276]”: the “Peptide exchange” value in assay [2] is recorded as “+++ (= ≥50% = +++)”.

On to “277 (KLQEELNKV; listed as Homo sapiens) [compound 277]”, for which the “Peptide exchange” value in assay [2] is recorded as “+++ (= ≥50% = +++)”.

For “278 (VLEDKVLSV; listed as Homo sapiens) [compound 278]”, the “Peptide exchange” value in assay [2] is given as “+++ (= ≥50% = +++)”.

With “280 (HLWGHALFL; listed as Homo sapiens) [compound 280]”, the “Peptide exchange” value in assay [2] is recorded as “+++ (= ≥50% = +++)”.

Take “283 (ALSELLQQV; listed as Homo sapiens) [compound 283]”: the “Peptide exchange” value in assay [2] is “+++ (= ≥50% = +++)”.

Consider “285 (MLLDTVQKV; listed as Homo sapiens) [compound 285]”, for which the “Peptide exchange” value in assay [2] is “+++ (= ≥50% = +++)”.

Consider “286 (FLTEMVHFI; listed as Homo sapiens) [compound 286]”, for which the “Peptide exchange” value in assay [2] is listed as “+++ (= ≥50% = +++)”.

Consider “287 (KIQEILTQV; listed as Homo sapiens) [compound 287]”, for which the wells result in assay [1] (percentage of positive wells, in vitro priming of CD8+ T cells of healthy HLA-A*02 donors) is listed as “+ (<20% = +)”.

In the case of “288 (SLYKGLLSV; listed as Homo sapiens) [compound 288]”, in assay [1] (percentage of positive donors, in vitro priming of CD8+ T cells of healthy HLA-A*02 donors), the donors result is recorded as “++++ (> = 70% = ++++)”.
